Test results: the supplement of paper PMC9170038

Tested on: MS2 coat protein
Test: apparent KD of MS2 coat protein; designed switch direction (-1 OFF switch, 1 ON switch): 1; higher = weaker reporter binding
Outline: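 Each step of the titration lasted 0.8–1.5 h at the lowest concentration and 10–20 min at the highest. The protein, SNAP-549-labelled MS2 coat protein, went from 0.7 or 1.5 nM doubling to 3 µM over RNA switches transcribed on Illumina chips by stalled E. coli RNA polymerase. Normalised cluster fluorescence was curve-fitted, and the per-design median over clusters is given as apparent KD.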

[1] = Eterna round: R95, input ligand: FMN 200 uM
[2] = Eterna round: R95, input ligand: microRNA oligo, concentration not stated
[3] = Eterna round: R95, input ligand: none
[4] = input ligand: microRNA oligo, concentration not stated

## GAGAGAGGAAGCGAGGAUAUCGUGUUGAGUACAUGAGGAUCACCCAUGUUGUAGGUAGAGGUAGGCGAGAAGGCGCAGGAGAGGU [JR_SS2_Sub098] (puzzle: Same State 2)
[1]
  apparent KD of MS2 coat protein: 106 nM
[2]
  apparent KD of MS2 coat protein: 48.8 nM
[3]
  apparent KD of MS2 coat protein: 122 nM

## UCAAGCGAGAGGCUCGUCUUAUGUUUGGUACAUGAGGAUCACCCAUGUUAGGGACGAUUUAGUUAGAUGGAAUUUUG [JR_SHM208A_Sub035] (puzzle: Sensor for hsa-mir-208a)
[1]
  apparent KD of MS2 coat protein: 48.5 nM
[2]
  apparent KD of MS2 coat protein: 269 nM
[3]
  apparent KD of MS2 coat protein: 65.7 nM

## UAAAAGAAUUAAGGAUAUUGAAUACAUAUGUUUAACAUGAGGAUCACCCAUGUGGGUUGCGGUAUCGAGAAGGUAAAAUAAUAG [Mat - Same State NG 2 - JL mod - D6] (Eterna round: R96, puzzle: Same State NG 2)
Input ligand: FMN 200 uM
  apparent KD of MS2 coat protein: 163 nM
[4]
  apparent KD of MS2 coat protein: 110 nM
Input ligand: none
  apparent KD of MS2 coat protein: 151 nM

## CUGCAACAUGAGGAUCACCCAUGUAACCCAAUUAUAGGAUAUGUGAUGGUGAUCGACAUGACAGAAGGGUGAUUGG [Arinra] (puzzle: Same State 1)
[1]
  apparent KD of MS2 coat protein: 199 nM
[2]
  apparent KD of MS2 coat protein: 99.4 nM
[3]
  apparent KD of MS2 coat protein: 46.4 nM

## GCUACCAAUGAAGCCAACAUGAGGAUCACCCAUGUAUGUUGGUAGGAUAUCGUUUGCAAAGCAAACGAGAAGGGCUAAGGUAGC [Mat - Same State NG 3 - JL Mod - D75] (Eterna round: R96, puzzle: Same State NG 3)
Input ligand: FMN 200 uM
  apparent KD of MS2 coat protein: 62.8 nM
[4]
  apparent KD of MS2 coat protein: 36.8 nM
Input ligand: none
  apparent KD of MS2 coat protein: 51 nM

## UUAUACUAGAGAGGAUAUGCAGAGGAUCACCCUGCAGAAGGCUCAUUAGAGAGGAUAUGCAGAGGAUCACCCUGCAGAAGGCUC [pwkr ssNG DX.21] (Eterna round: R96, puzzle: Same State NG 1)
Input ligand: FMN 200 uM
  apparent KD of MS2 coat protein: 10.7 nM
[4]
  apparent KD of MS2 coat protein: 22.2 nM
Input ligand: none
  apparent KD of MS2 coat protein: 20.1 nM

## AAGCUGUGUGUAUGGUCAUUGUCAACGGUACAUGAGGAUCACCCAUGUAGCAUUAACCAUCCGACUCUGUUGGAGGU [high scoring solution 6] (Eterna round: R96, puzzle: Sensor for hsa-mir-208a)
Input ligand: FMN 200 uM
  apparent KD of MS2 coat protein: 58.7 nM
[4]
  apparent KD of MS2 coat protein: 40.7 nM
Input ligand: none
  apparent KD of MS2 coat protein: 51.7 nM

## AAAGAAAAACUAGAGGAUAUCCGAGUGGUAACAUGAGGAUCACCCAUGUGAUGAAAGGAACAUGAGGAGAAGGCUAGAAGAAAAA [JL Nando mod 8] (Eterna round: R96, puzzle: Same State 2)
Input ligand: FMN 200 uM
  apparent KD of MS2 coat protein: 20.6 nM
[4]
  apparent KD of MS2 coat protein: 47.6 nM
Input ligand: none
  apparent KD of MS2 coat protein: 56.5 nM

## GAGUGACAUGAGGAUCACCCAUGUAGAAUAGAACAAGGAUAUGUGGAAGGCGGAGGAGAGACAGAAGGUGUUGAAG [JR_SS1_Sub057] (puzzle: Same State 1)
[1]
  apparent KD of MS2 coat protein: 49 nM
[2]
  apparent KD of MS2 coat protein: 46 nM
[3]
  apparent KD of MS2 coat protein: 67.7 nM

## AAAGACAUGGUGCAGGAUAUAUUAAUAGUCACAUGAGGAUCACCCAUGUUCAGAUAUCUGAACGAGUAGAAGGGCGAUGAAAAAA [SameState2 Malc#5] (Eterna round: R96, puzzle: Same State 2)
Input ligand: FMN 200 uM
  apparent KD of MS2 coat protein: 530 nM
[4]
  apparent KD of MS2 coat protein: 28.7 nM
Input ligand: none
  apparent KD of MS2 coat protein: 204 nM

## GCUGCAAUUAACGCCUACAUGAGGAUCACCCAUGUAUGUAGGCAGGAUAUCGUUUGCUUUGCAAACGAGAAGGGCCGUAGUAGC [JL SSNG3 1.12] (Eterna round: R96, puzzle: Same State NG 3)
Input ligand: FMN 200 uM
  apparent KD of MS2 coat protein: 22.8 nM
[4]
  apparent KD of MS2 coat protein: 37.6 nM
Input ligand: none
  apparent KD of MS2 coat protein: 63.1 nM

## AGUCCAGCCUGAGCUGGACAAAAGCAUGUACAUGAGGAUCACCCAUGUUCAUGUACAAGCUUUUUGCUCGUCUUAUU [salish99_208a_r3_047] (puzzle: Sensor for hsa-mir-208a)
[1]
  apparent KD of MS2 coat protein: 457 nM
[2]
  apparent KD of MS2 coat protein: 14.1 nM
[3]
  apparent KD of MS2 coat protein: 725 nM

## AGUCCUGAAAAGAAAAUACAGAGAGAUGUACAUGAGGAUCACCCAUGUCAUGUACAAGUUCUAUGCUCGUCAUAUAA [Sensorship 22 - Jieux - Sensor for hsa-mir-208a] (puzzle: Sensor for hsa-mir-208a)
[1]
  apparent KD of MS2 coat protein: 510 nM
[2]
  apparent KD of MS2 coat protein: 106 nM
[3]
  apparent KD of MS2 coat protein: 617 nM

## CCGUCGGAGGUAGGAUAUGGAGCCUUAUUGGCUCCAGAAGGAUCAAAUAAAUUAACAAACAUGAGGAUCACCCAUGUCCGACGG [Eli NG1ss - 86] (Eterna round: R96, puzzle: Same State NG 1)
Input ligand: FMN 200 uM
  apparent KD of MS2 coat protein: 156 nM
[4]
  apparent KD of MS2 coat protein: 331 nM
Input ligand: none
  apparent KD of MS2 coat protein: 558 nM

## UAUCCAUAGAUAGGAUAUUAGAGAACAUGAGGAUCACCCAUGUUUGGCUUGGUUUUAAGCUAAUCUGAGAAGGAUCUUGAUGAA [SameState NG2 #8] (Eterna round: R96, puzzle: Same State NG 2)
Input ligand: FMN 200 uM
  apparent KD of MS2 coat protein: 85.5 nM
[4]
  apparent KD of MS2 coat protein: 185 nM
Input ligand: none
  apparent KD of MS2 coat protein: 119 nM

## GGUAAGAAUUAAGGAUAUCGAGUACAUAUGUUUAACAUGAGGAUCACCCAUGUGGGUUGCGGUAUCGAGAAGGUAAAAUAUAAG [Mat - same State NG 2 - JL mod - D64] (Eterna round: R96, puzzle: Same State NG 2)
Input ligand: FMN 200 uM
  apparent KD of MS2 coat protein: 51.8 nM
[4]
  apparent KD of MS2 coat protein: 26.4 nM
Input ligand: none
  apparent KD of MS2 coat protein: 75.7 nM

## GUGCUCGUGUGAGGAUAUGCUUCCGUUUCGGCUGCAGAAGGUACUAUUAUACAUGAGGAUCACCCAUGUCGCUUUUCUCCGGUG [salish99_SSNG1_r04_915] (Eterna round: R96, puzzle: Same State NG 1)
[4]
  apparent KD of MS2 coat protein: 21.8 nM

## GGAGCCUGCACUGAGGAUAUUCGUAGUGUAACAUGAGGAUCACCCAUGUGUCGCCGUAGCGACUGGGAGAAGGCAGUGCGGCUCG [JL-ss2-3.07 ViennaUCT mod] (puzzle: Same State 2)
[1]
  apparent KD of MS2 coat protein: 25.9 nM
[2]
  apparent KD of MS2 coat protein: 48.4 nM
[3]
  apparent KD of MS2 coat protein: 84.3 nM

## UGUUGAAACUGAGGAUAUGGCGUGUGACGAAUGCCAGAAGGUAGUAGGAGCAACAUGAGGAUCACCCAUGUCCGGCGCAGACCC [Eternabot solution 16] (Eterna round: R96, puzzle: Same State NG 1)
Input ligand: FMN 200 uM
  apparent KD of MS2 coat protein: 85.6 nM
[4]
  apparent KD of MS2 coat protein: 61.3 nM
Input ligand: none
  apparent KD of MS2 coat protein: 71.3 nM

## AACAAACAUGAGGAUCACCCAUGUACAGACCUGGACAUUGUCGAGGAUAUCAGCAAGAAAACAGCUGAGAAGGUGACGCCAGAG [Eternabot solution 6] (Eterna round: R96, puzzle: Same State NG 3)
Input ligand: FMN 200 uM
  apparent KD of MS2 coat protein: 30.8 nM
[4]
  apparent KD of MS2 coat protein: 52.2 nM
Input ligand: none
  apparent KD of MS2 coat protein: 70.3 nM

## AUGGAGACCGGAGGAUAUGGACCAACAAUCGGUCCAGAAGGCUGCCCAUGGUAUACAUGAGGAUCACCCAUGUGGCCGCGGAGA [Eternabot solution 13] (Eterna round: R96, puzzle: Same State NG 1)
Input ligand: FMN 200 uM
  apparent KD of MS2 coat protein: 65.8 nM
[4]
  apparent KD of MS2 coat protein: 69.2 nM
Input ligand: none
  apparent KD of MS2 coat protein: 102 nM

## UUUUUGAUCCGAGGAUAUCCUUUUUUCUUACAUGAGGAUCACCCAUGUAAAGGGAUUGAGUUGUAGGAGAAGGCGGUUUUUUUU [JR_SSNG2_Sub060] (Eterna round: R96, puzzle: Same State NG 2)
Input ligand: FMN 200 uM
  apparent KD of MS2 coat protein: 17.5 nM
[4]
  apparent KD of MS2 coat protein: 32.4 nM
Input ligand: none
  apparent KD of MS2 coat protein: 32.3 nM

## AAUUUAAUACAUGAGGAUCACCCAUGUAAAUUAAUUAAGAUCAAGGAUAUCAGCUCGAAUAGAGCUGAGAAGGUGAUCACAUGU [SSNG3/19-A1] (Eterna round: R96, puzzle: Same State NG 3)
[4]
  apparent KD of MS2 coat protein: 244 nM

## ACUCAGUACAAUUUAGAUCUACAUGAGGAUCACCCAUGUACUGAGGAUAUCAGCUCGAUUAGAGCUGAGAAGGCAGUUGUACUA [SSNG3/10-A2] (Eterna round: R96, puzzle: Same State NG 3)
Input ligand: FMN 200 uM
  apparent KD of MS2 coat protein: 82.3 nM
[4]
  apparent KD of MS2 coat protein: 161 nM
Input ligand: none
  apparent KD of MS2 coat protein: 125 nM

## GUUACAUGAGGAUCACCCAUGUAUGUGUGGGAGUAAGUGUCUUAGGAUAUCUAAUAUUUAAAUUAAGAGAAGGAAGAUUGUUGU [JMF's solution 6] (Eterna round: R96, puzzle: Same State NG 3)
Input ligand: FMN 200 uM
  apparent KD of MS2 coat protein: 112 nM
[4]
  apparent KD of MS2 coat protein: 89.9 nM
Input ligand: none
  apparent KD of MS2 coat protein: 112 nM

## UAGUGCGUUAGAGGAUAUUCUAAAUAAAAUAAUAAGACAUGAGGAUCACCCAUGUAUGUACAUGGGAAGAAGGCUGAUGUGCUA [Omei SS(NG)2 Bv2] (Eterna round: R96, puzzle: Same State NG 2)
[4]
  apparent KD of MS2 coat protein: 342 nM

## AACAAUCUAUCUGAGGAUAUCUUGAAAUAAACAUGAGGAUCACCCAUGUGCAGGAAAACUGCAUAUGAGAAGGCAGAUAGAUUGA [salish99_ss2_r3_028] (puzzle: Same State 2)
[1]
  apparent KD of MS2 coat protein: 14.5 nM
[2]
  apparent KD of MS2 coat protein: 124 nM
[3]
  apparent KD of MS2 coat protein: 148 nM

## CUGAAAUGUCAAGGAUAUCACGUCGAUUAGACGUGAGAAGGUGAUCUACACAUGAGGAUCACCCAUGUGUUACAUGGGAGUCAG [Brourd's SSNG1/1-A2 mod 17] (Eterna round: R96, puzzle: Same State NG 1)
Input ligand: FMN 200 uM
  apparent KD of MS2 coat protein: 325 nM
[4]
  apparent KD of MS2 coat protein: 448 nM
Input ligand: none
  apparent KD of MS2 coat protein: 601 nM

## AACAAUCUAUCUGAGGAUAUCAUGUCAAAGACAUGAGGAUCACCCAUGUACCAGGAAACUGGAUAUGAGAAGGCAGAUAGAUUGA [SS2: 1119] (Eterna round: R96, puzzle: Same State 2)
Input ligand: FMN 200 uM
  apparent KD of MS2 coat protein: 16.6 nM
[4]
  apparent KD of MS2 coat protein: 80 nM
Input ligand: none
  apparent KD of MS2 coat protein: 162 nM

## GCGAAAGCGGUAGGAUAUCUAGGAUAUGGGAAGAGCUAAGCUUGGAAGUCACUUCACCCAGAAGGAGAGAAGGACACCGAAAGG [pwkr ssNG2 2FMN + F9.3] (Eterna round: R96, puzzle: Same State NG 2)
Input ligand: FMN 200 uM
  apparent KD of MS2 coat protein: 2990 nM
[4]
  apparent KD of MS2 coat protein: 302 nM
Input ligand: none
  apparent KD of MS2 coat protein: 390 nM
